Assay [1] addresses ATTRv amyloid extract (patient heart), variant not named (human (endogenous in patient heart)) (UniProt P02766). Briefly: co-sedimentation; pulldown with tissue amyloid extracts suspended in PBS at 1 mg/mL, homogenized; as for WIL fibrils except that 1.0% bovine serum albumin was added.
Assay [2] concerns the target ALκ amyloid extract (patient liver) (human (endogenous in patient liver)). The description is as above.
Assay [3] concerns the target murine splenic AA amyloid extract (mouse (endogenous in spleen)) (UniProt P05367). Described as above.
Assay [4] deals with ALλ amyloid extract (patient spleen) (human (endogenous in patient spleen)). The description is as above.
The target in assay [5] is synthetic AL amyloid fibrils composed of the recombinant λ6 light chain variable domain from patient (human). Briefly: co-sedimentation; "pulldown" bioactivity assay as a1; batch product 6 h post-synthesis (some loss of ^99mTcO4^-1 from the peptide).
Assay [6] shares this target. Briefly: co-sedimentation; "pulldown" bioactivity assay as a1; batch product stored 3 h at RT post-synthesis.
The target is the same in assay [7]. Briefly: co-sedimentation; "pulldown" bioactivity assay; product labelled from lyophilized "kit" preparations stored at -80°C for 7, 98 and 128 days.
Assay [8] shares this target. Briefly: co-sedimentation; "pulldown" bioactivity assay; batch product at 0 h post-synthesis; 25 ug fibrils in PBS with 0.05% tween 20, 20-40 ng radiolabeled product, 1 h at RT, centrifugation 10,000 x g 3 min, gamma counting of pellet and supernatant.
Assay [9] shares this target. Briefly: co-sedimentation; pulldown as for WIL fibrils except that 1.0% bovine serum albumin was added; synthetic rVλ6WIL fibrils as substrate.

One substance from article PMC10997057 can be followed below.

Sequence of ^99mTc-labeled p5+14 peptide (peptide): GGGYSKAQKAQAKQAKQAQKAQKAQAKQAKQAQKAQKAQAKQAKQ
Sequence of murine splenic AA amyloid extract (mouse (endogenous in spleen)) (P05367 20-122): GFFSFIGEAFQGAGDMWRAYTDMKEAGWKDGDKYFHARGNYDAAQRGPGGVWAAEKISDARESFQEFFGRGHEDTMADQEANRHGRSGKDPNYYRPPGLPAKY

As for ^99mTc-labeled p5+14 peptide, the bound (%) was 79% in assay [1]; 93.3% in [2]; 67.8% in assay [3]; 88.1% in assay [4]; 91.1% in assay [9]. In assay [5], the Bioactivity (bound %), 6 h post-synthesis turned out to be 72.2%. For the same substance, in assay [6], the Bioactivity (bound %), 3 h post-synthesis amounted to 92.9%. In addition, in [7], the bioactivity (% bound), kit at day 7 came to 76.8%. Besides, the bioactivity (% bound), kit at day 98 in assay [7] was determined as 75.1%. The bioactivity (% bound), kit at day 128 in [7] turned out to be 75.2%. The Bioactivity (bound %), 0 h post-synthesis in [8] was found to be 94%.
